# Substitutions are numbered along the chain they refer to. Where two headings read alike, the source gives them in different places.
# T1: recombinant dog PD-L1-Fc (70110-DO2H, Sino Biological Inc.) (dog, UniProt E2RKZ5 19-236, Biotinylated on lysines/amines (EZ-Link Sulfo-NHS-LC-Biotin); positions not defined)
# T1 construct: Bought; also called Dog PD-L1-Fc-Biotin; canine PD-L1; not shown: Fc part and any linker of the bought fusion (Sino Biological 70110-DO2H)
# T1 sequence: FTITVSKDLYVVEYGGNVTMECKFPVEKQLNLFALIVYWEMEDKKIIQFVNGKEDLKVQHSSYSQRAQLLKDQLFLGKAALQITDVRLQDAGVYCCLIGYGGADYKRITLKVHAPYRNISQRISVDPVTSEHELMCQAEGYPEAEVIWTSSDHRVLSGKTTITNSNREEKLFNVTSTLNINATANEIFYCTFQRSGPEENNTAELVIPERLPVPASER
# B1: anti-PD-L1 fully human antibody YN-002 (antibody, human IgG1, lambda, V domains shown)
# VH: QVQLVQSGAEVRKPGSSVKVSCKASGGTFSSYAISWVRQAPGQGLEWMGRIIPILGIANYAQKFQGRVTITADKSTSTAYMELSSLRSEDTAVYYCARTMDGYSYGNFDYWGQGTLVTVSS
# VL: QSALTQPASVSGSPGQSITISCTGTSSDVGGYNYVSWYQQHPGKAPKLLIYGNSNRPSGVPDRFSGSKSGTSASLAITGLQAEDEADYYCQSYDSSLSGSVFGGGTKLTVLG
# notes: Intact IgG1,lambda antibody of phage antibody 1B10, expressed in 293F cells
# B2: PD-L1 antibody YN-036 (antibody, human IgG1, lambda, V domains shown)
# VH: B1 VH with R12K, G26R, T28P, S31T, D101G, G102E, F108Y
# VL: QSALTQPASVSGSPGQSITISCTGTVSEVGGYNEVSWYQQHPGKAPKLMIYGNSNRPSGVSNRFSGSKSGNTASLTISGLQAEDEADYYCQSYDSSLSGTVFGGGTKLTVLG
# notes: full-length IgG1,lambda
# B3: anti-PD-L1 fully human antibody YN-003 (antibody, human IgG1, lambda, V domains shown)
# VH: B1 VH with R12K
# VL: B2 VL with V26S, E28D, E34Y, T100S
# notes: Germline version of YN-002; IgG1,lambda
# B4: PD-L1 antibody YN-035 (antibody, human IgG1, lambda, V domains shown)
# VH: B1 VH with R12K, G26R, T28P, S31T, D101E, S104G, Y105F
# VL: B2 VL
# notes: full-length IgG1,lambda
# Assays:
# [1] = target: T2, recombinant Macaca fascicularis PD-L1-Fc (90251-CO2H, Sino Biological Inc.) (Macaca fascicularis, UniProt G7PSE7 19-239); assay: BLI (Octet RED384), biotinylated antigen on SA sensor, antibody in solution
# T2 construct: Bought; also called Macaca Fascicularis PD-L1-Fc-Biotin; not shown: Fc part
# Procedure: (§1) The antigen-antibody binding kinetics were analyzed by a biofilm interference (BLI) technology, using a molecular interaction analyzer (Octet RED384, purchased from Pall ForteBio Analytics Co., Ltd.) and using a PBS buffer containing 0.1% BSA and 0.02% Tween 20. A biotin-coupled antigen protein with a concentration of 50 nM was fixed with the SA sensor (Pall ForteBio Analytics Co., Ltd.), and bound at 1500 rpm for 10 minutes; then it was bound with the double-diluted antibody solution at 1500 rpm for 10 minutes; and finally dissociated at 1500 rpm for 10 minutes. The obtained results would be analyzed by Octet Data Analysis 9.0 software (Pall ForteBio Analytics Co., Ltd.) to give the KD, Kₒₙ (1/Ms) and Koff (1/s).
# [2] = target: T3, recombinant mouse PD-L1-Fc protein (M5251, ACROBiosystems Inc.) (mouse, UniProt Q9EP73 19-238); assay: as above
# T3 construct: Bought; Labeled with biotin for the BLI assays; unlabeled in the phage ELISA; also called Mouse PD-L1-Fc-Biotin; not shown: Fc part
# Procedure: as §1
# [3] = target: T1, recombinant dog PD-L1-Fc (70110-DO2H, …); assay: as above
# Procedure: as §1
# [4] = target: T4, recombinant human PD-L1-Fc protein (Origincell Therapeutics Co., Ltd.) (human, UniProt Q9NZQ7 19-238, limits assumed); assay: as above
# T4 construct: Labeled with biotin (EZ-Link Sulfo-NHS-LC-Biotin) for the BLI assays; unlabeled in the phage ELISA; also called Human PD-L1-Fc-Biotin; not shown: Fc part
# Procedure: as §1
# [5] = target: T5, human PD-L1 on cells (CHO cells that stably expressed human PD-L1; MDA-MB-231 cells) (human, UniProt Q9NZQ7 19-290); assay: flow cytometry competition: biotin-labelled human PD-1-Fc at a subsaturated concentration on CHO cells stably expressing human PD-L1, antibody titrated, streptavidin R-PE detection
# T5 construct: whole, on cells; Stably expressed on CHO cells; also called CHO cells expressing human PD-L1
# Procedure: (§2) After cell washing, Streptavidin R-PE Conjugate (life technology, SA10041) was added and incubated (4° C., 30 min). After cell washing, the fluorescence intensity was detected by a flow cytometer (Intellicyt iQue Screener).
# [6] = target: T6, mouse PD-L1 on CHO cells that stably expressed mouse PD-L1 (mouse, UniProt Q9EP73 19-290); assay: flow cytometry competition: biotin-labelled mouse PD-1-Fc at a subsaturated concentration on CHO cells stably expressing mouse PD-L1, antibody titrated, streptavidin R-PE detection
# T6 construct: whole, on cells; also called CHO cells expressing mouse PD-L1
# Procedure: After cell washing, Streptavidin R-PE Conjugate (life technology, SA10041) was added and incubated (4° C., 30 min). After cell washing, the fluorescence intensity was detected by flow cytometer (Intellicyt iQue Screener).
# [7] = target: T6, mouse PD-L1 on CHO cells that stably …; assay: as above; remark: listed apart in the source
# Procedure: as §2
# [8] = target: T5, human PD-L1 on cells (CHO cells that …); assay: flow cytometry on CHO cells stably expressing human PD-L1, anti-human IgG-Fc DyLight 650 detection
# Procedure: The mixture was mixed well and incubated at 4° C. for 1 hr. After cell washing, Goat F(ab)₂ Anti-Human IgG-Fc (DyLight 650) (ab98593, Abcam) was added and incubated at 4° C. for 30 min. After cell washing, the fluorescence intensity was detected by a flow cytometer (Intellicyt iQue Screener).
# [9] = target: T5, human PD-L1 on cells (CHO cells that …); assay: flow cytometry on MDA-MB-231 cells (human PD-L1), anti-human IgG-Fc DyLight 650 detection
# Procedure: Human breast cell strain MDA-MB-231 (Shanghai Chinese Academy of Sciences Cell Library) highly expresses the human PD-L1 molecule. […] After cell washing, Goat F(ab′)₂ Anti-Human IgG-Fc (DyLight 650) (ab98593, abcam) was added and incubated at 4° C. for 30 min. After cell washing, the fluorescence intensity was detected by a flow cytometer (Intellicyt iQue Screener).
# [10] = target: T6, mouse PD-L1 on CHO cells that stably …; assay: flow cytometry on CHO cells stably expressing mouse PD-L1, anti-human IgG-Fc DyLight 650 detection
# Procedure: The mixture was mixed well and incubated at 4° C. for 1 hr. After cell washing, Goat F(ab′)₂ Anti-Human IgG-Fc (DyLight 650) (ab98593) was added and incubated at 4° C. for 30 min. After cell washing, the fluorescence intensity was detected by a flow cytometer (Intellicyt iQue Screener).
# [11] = target: T5, human PD-L1 on cells (CHO cells that …); assay: flow cytometry on CHO cells stably expressing human PD-L1, anti-human IgG-Fc DyLight 650 detection; remark: listed apart in the source
# Procedure: After cell washing, Goat F(ab′)₂ Anti-Human IgG-Fc (DyLight 650) (ab98593, abcam) was added and incubated at 4° C. for 30 min. After cell washing, the fluorescence intensity was detected by a flow cytometer (Intellicyt iQue Screener).
# [12] = target: T7, recombinant human PD-L1-His protein (Origincell Therapeutics Co., Ltd.) (human, UniProt Q9NZQ7 19-238, limits assumed); assay: BLI (Octet RED384), antibody on AHC sensor, PD-L1-His in solution
# T7 construct: not shown: His tag
# [13] = target: T6, mouse PD-L1 on CHO cells that stably …; assay: flow cytometry competition: biotin-labelled mouse PD-1-Fc at a subsaturated concentration on CHO cells stably expressing mouse PD-L1, antibody titrated, streptavidin R-PE detection; remark: listed apart in the source
# Procedure: as §2
# [14] = target: T5, human PD-L1 on cells (CHO cells that …); assay: flow cytometry competition: biotin-labelled human PD-1-Fc at a subsaturated concentration on CHO cells stably expressing human PD-L1, antibody titrated, streptavidin R-PE detection; remark: listed apart in the source
# Procedure: as §2
# T3 sequence (Q9EP73 19-238 limits assumed): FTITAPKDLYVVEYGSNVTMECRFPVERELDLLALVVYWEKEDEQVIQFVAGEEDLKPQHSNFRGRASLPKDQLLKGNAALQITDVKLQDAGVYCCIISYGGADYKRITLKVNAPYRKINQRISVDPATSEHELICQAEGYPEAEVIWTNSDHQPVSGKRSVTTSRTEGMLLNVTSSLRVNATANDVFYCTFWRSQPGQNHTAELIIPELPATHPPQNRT
# T7 sequence (Q9NZQ7 19-238 limits assumed): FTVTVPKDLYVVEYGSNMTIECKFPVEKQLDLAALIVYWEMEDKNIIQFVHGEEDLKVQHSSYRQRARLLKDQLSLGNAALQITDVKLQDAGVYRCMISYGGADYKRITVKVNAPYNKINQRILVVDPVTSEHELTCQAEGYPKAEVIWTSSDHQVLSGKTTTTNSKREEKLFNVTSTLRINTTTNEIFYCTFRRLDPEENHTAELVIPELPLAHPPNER
# T4 sequence (Q9NZQ7 19-238 limits assumed): as above
# T2 sequence (G7PSE7 entry or part of it): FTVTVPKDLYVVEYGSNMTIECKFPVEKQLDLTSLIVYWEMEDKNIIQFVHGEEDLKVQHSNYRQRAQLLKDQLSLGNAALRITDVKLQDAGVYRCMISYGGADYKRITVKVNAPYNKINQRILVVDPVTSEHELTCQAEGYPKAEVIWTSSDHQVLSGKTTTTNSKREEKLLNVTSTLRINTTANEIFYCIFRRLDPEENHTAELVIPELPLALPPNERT
# T6 sequence (Q9EP73 19-290): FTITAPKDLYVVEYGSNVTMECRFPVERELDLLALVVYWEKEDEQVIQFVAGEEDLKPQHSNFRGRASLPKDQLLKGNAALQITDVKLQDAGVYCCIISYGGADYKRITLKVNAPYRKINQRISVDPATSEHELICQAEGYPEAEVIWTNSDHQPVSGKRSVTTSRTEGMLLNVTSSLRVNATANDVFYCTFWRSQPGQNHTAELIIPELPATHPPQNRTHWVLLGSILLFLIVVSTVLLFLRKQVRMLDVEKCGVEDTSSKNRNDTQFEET
# T5 sequence (Q9NZQ7 19-290): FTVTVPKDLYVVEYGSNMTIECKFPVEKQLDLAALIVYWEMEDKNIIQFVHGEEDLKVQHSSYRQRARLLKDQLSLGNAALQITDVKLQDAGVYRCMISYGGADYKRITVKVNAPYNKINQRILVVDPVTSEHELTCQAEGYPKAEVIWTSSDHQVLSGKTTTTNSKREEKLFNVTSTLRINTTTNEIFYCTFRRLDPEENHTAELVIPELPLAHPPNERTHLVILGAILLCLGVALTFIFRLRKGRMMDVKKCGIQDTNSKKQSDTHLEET
Binder,Kd [1] [nM],koff [1] [s⁻¹],kon [1] [M⁻¹ s⁻¹],Kd [2] [nM],koff [2] [s⁻¹],kon [2] [M⁻¹ s⁻¹],Kd [3] [nM],koff [3] [s⁻¹],kon [3] [M⁻¹ s⁻¹],Kd [4] [nM],koff [4] [s⁻¹],kon [4] [M⁻¹ s⁻¹],IC50 (read off the curve) [5],IC50 (read off the curve) [6] [µg/mL],IC50 (read off the curve) [7] [nM],EC50 (read off the curve) [8] [nM],EC50 (read off the curve) [9] [nM],EC50 (read off the curve) [10] [nM],EC50 (read off the curve) [11] [nM],Kd [12] [nM],further results
B1,1.07,0.0019,1.77e+06,1.72,0.00168,977000,0.743,0.000759,1.02e+06,0.888,0.000594,669000,~1 µg/mL,~0.1,–,–,–,–,–,–,–
B2,–,–,–,–,–,–,–,–,–,–,–,–,~3 nM,–,~5,3 to 4,~1,~4,~4,0.474,koff [12]: 0.000175 s⁻¹; kon [12]: 369000 M⁻¹ s⁻¹; IC50 (read off the curve) [13]: ~2 nM; IC50 (read off the curve) [14]: ~2 nM
B3,0.654,0.00136,2.08e+06,0.996,0.000997,1.03e+06,0.594,0.000514,864000,0.408,0.000611,1.5e+06,~0.2 µg/mL,~0.06,–,–,–,–,–,–,–
B4,–,–,–,–,–,–,–,–,–,–,–,–,~3 nM,–,~5,3 to 4,~0.9,~6,~4,0.452,koff [12]: 0.000193 s⁻¹; kon [12]: 427000 M⁻¹ s⁻¹; IC50 (read off the curve) [13]: ~3 nM; IC50 (read off the curve) [14]: ~2 nM

# — patent US20210261677A1 (ORICELL THERAPEUTICS, published 2021)
